Test results taken from patent US20190153113A1, “CD39 VASCULAR ISOFORM TARGETING AGENTS” (INNATE PHARMA, priority 2015, published 2019).
Positions count from the first letter of the chain named. In names and notes the source's numbering stands. Values belong to the molecule of their own block, whether it stands above or below them.

How the values were obtained:
[1] = target: T1, CD39 mutant 3 (R118A, S119A, Q120K, Q122H, E123A) (human, UniProt P49961 1-510); experiment: flow cytometry, HEK293T cells transfected with mutant 3
T1 construct: Transfected in HEK293T cells
T1 chain: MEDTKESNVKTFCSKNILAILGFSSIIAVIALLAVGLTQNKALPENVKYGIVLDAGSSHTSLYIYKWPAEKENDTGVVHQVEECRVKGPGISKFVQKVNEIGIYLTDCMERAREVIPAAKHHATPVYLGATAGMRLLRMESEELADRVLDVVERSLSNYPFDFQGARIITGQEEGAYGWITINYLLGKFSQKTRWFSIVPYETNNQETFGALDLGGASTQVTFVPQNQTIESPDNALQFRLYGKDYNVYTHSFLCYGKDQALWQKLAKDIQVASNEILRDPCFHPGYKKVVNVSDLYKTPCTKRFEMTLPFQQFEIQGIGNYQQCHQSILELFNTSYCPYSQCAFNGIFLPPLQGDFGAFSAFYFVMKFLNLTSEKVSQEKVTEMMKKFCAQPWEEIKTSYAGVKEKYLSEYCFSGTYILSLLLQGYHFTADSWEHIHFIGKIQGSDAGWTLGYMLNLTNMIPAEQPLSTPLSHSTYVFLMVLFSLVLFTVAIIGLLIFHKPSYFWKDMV

[2] = target: T2, CD39 mutant 15 (K87A, E100A, D107A) (human, UniProt P49961 1-510); experiment: flow cytometry, HEK293T cells transfected with mutant 15
T2 construct: Transfected in HEK293T cells
T2 chain: T1 chain with K87A, E100A, D107A, A118R, A119S, K120Q, H122Q, A123E

[3] = target: T3, CD39 mutant 2A (V81S, E82A, R111A, V115A) (human, UniProt P49961 1-510); experiment: flow cytometry, HEK293T cells transfected with mutant 2A
T3 construct: Transfected in HEK293T cells
T3 chain: T1 chain with V81S, E82A, R111A, V115A, A118R, A119S, K120Q, H122Q, A123E

CD39 = target: T4, CD39 (Homo sapiens, UniProt P49961); experiment: Inhibition of CD39 enzymatic activity in Ramos cells, AMP production by Maldi TOF mass spectrometry; assay type: cell-based
T4 construct: cells that endogenously express CD39 at their surface, e.g. regulatory T (TReg) cells, B cells, cancer cells, lymphoma cells (e.g. Ramos cells); endogenous in cells; host or cells: Ramos human lymphoma cells
T4 sequence (P49961 1-510): T1 chain with A118R, A119S, K120Q, H122Q, A123E
Method: The inhibition of CD39 enzymatic activity by antibodies was evaluated by Maldi TOF mass spectrometry (production of AMP). This assay represents an assay that is relatively insensitive to down-modulation of CD39 expression. […] After washes, cells were incubated with anti-CD39 antibodies, isotype control, or ARL and 50 μM ATP for 30 minutes at 4° C. in PBS. AMP generated is quantified in supernatants by Maldi TOP.
The inhibition of CD39 enzymatic activity by antibodies was evaluated by Maldi TOF mass spectrometry (production of AMP). Briefly, 10^5 Ramos human lymphoma cells were incubated overnight at 37° C. with anti-CD39 antibodies or a chemical CD39 inhibitor (ARL 100 μM). After washes, cells were incubated with anti-CD39 antibodies, isotype control, or ARL and 50 μM ATP for 30 minutes at 4° C. in PBS. AMP generated is quantified in supernatants by Maldi TOP. Antibodies were used at 33 nM and ARL at […].

[4] = target: T5, human CD39 at cell surface (Homo sapiens, UniProt P49961); experiment: CD39 down-modulation / internalization on Ramos cells; assay type: cell-based; conditions: Ramos human lymphoma cells, 10 μg/ml, 4° C. or 37° C.
T5 construct: cells that endogenously express CD39 at their surface, e.g. regulatory T (TReg) cells, B cells, cancer cells, lymphoma cells (e.g. Ramos cells); endogenous in cells; host or cells: Ramos human lymphoma cells
T5 sequence (P49961 1-510): T1 chain with A118R, A119S, K120Q, H122Q, A123E

binding result [1]: binds | binding result [2]: binds | binding result [3]: binds
B1: Antibody I-391, Fc silent recombinant chimeric human IgG1 with heavy chain N297Q mutation (antibody, V domains shown)
VH: QIQLVQSGPELKKPGETVKISCKASGYTFRNYGMNWVKQAPGKGLKWMGWINTYTGEPTYADDFKGRFAFSLATSASTAYLQISNLKNEDTATYFCARKAYYGSNYYFDYWGQGTTLTVSS
VL: DIVMTQSHKFMSTSVGDRVSITCKASQDVSTAVAWYQQKPGQSPKLLIYSASYRYTGVPDRFTGSGSGTDFTFTISTVQAEDLAVYYCQQHYTTPPYTFGGGTKLEIKR

maximum inhibition achieved (CD39; Ramos cells, 50 μM ATP): 93.4% | EC50 (CD39; read-out: EC50 (inhibition of 50% of the enzymatic activity of CD39), 100,000 Ramos cells, 50 μM ATP, n=3): 1.2 nM
B2: I-392: anti-CD39 antibody, VH SEQ ID NO: 8 and VL SEQ ID NO: 9, chimeric human IgG1 with N297Q mutation (antibody, V domains shown)
VH: QIQLVQSGPEVKKPRETVKISCKASGYTFTHYGMNWVKQAPGKGLKWMGWINTYTGEPTYADDFKGRFAFSLEASASTAYLQINNLKNEDTATYFCARRRYEGNYVFYYFDYWGQGTTLTVSS
VL: DIQMTQSPASLSASVGETVTITCRASENIYSYFSWYQQKQGKSPQLLVYTAKTLAEGVPSRFSGSGSGTQFSLKINSLQPEDFGSYYCQHHYVTPYTFGGGTKLEIK
blocking CD39 enzymatic activity (CD39; Ramos cells, Example 6): very potent at blocking CD39 enzymatic activity | CD39 down modulation / internalization [4]: do not induce CD39 down modulation nor CD39 internalization
